Laboratory results taken from patent publication US20130330355A1 (APEXIGEN, published 2013).

Key:
recombinant human IL-1β [1] = target: T1, recombinant human IL-1β (human, UniProt P01584 117-269); assay: cell-based or functional assay
recombinant human IL-1β [2] = target: T1, recombinant human IL-1β; assay: SPR
Procedure: Antigen binding affinities of anti-IL-1β antibodies were measured by surface Plasmon resonance (SPR).

recombinant human IL-1β [3] = target: T1, recombinant human IL-1β; assay: method not given
mouse IL-1β = mouse IL-1β (mouse, UniProt P10749 118-269); assay: cross-species reactivity assay, antibody titrated on IL-1β of each species, readout OD405nm
recombinant human IL-1β [4] = target: T1, recombinant human IL-1β; assay: as above
monkey IL-1β = monkey IL-1β (monkey); assay: as above
Sequence of monkey IL-1β (monkey) (P48090 117-269): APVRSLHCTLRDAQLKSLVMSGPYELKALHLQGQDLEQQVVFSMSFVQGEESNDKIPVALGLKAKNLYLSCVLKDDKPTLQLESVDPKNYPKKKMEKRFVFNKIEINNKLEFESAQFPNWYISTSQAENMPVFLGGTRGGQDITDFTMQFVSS

Sequence of mouse IL-1β (P10749 118-269 limits assumed): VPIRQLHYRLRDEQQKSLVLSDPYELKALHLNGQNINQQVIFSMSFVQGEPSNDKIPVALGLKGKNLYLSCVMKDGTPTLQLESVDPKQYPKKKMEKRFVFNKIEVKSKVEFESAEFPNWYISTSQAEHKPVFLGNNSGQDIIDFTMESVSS

B1: Q17 rabbit anti-IL-1β antibody (antibody, V domains shown)
VH: QSVEESGGRLVTPGTPLILTCTVSGFSLDVYTVTWVRQAPGKGLEWIGYIWSGGSASYASWAKGRFTISKTSTTVDLKISSPTTEDTATYFCARVKMISNIETFDPWGPGTLVTVSS
VL: AYDMTQTPASVEVVVGGTVTIKCQASERIYSGLAWYQQKPGQRPKLLIYRASTLASGVPSRFSGSGSGTEFTLTISDLECADAATYYCHQGVSSSDIDNVFGGGTEVVVK
IC 50, neutralization of IL-1β-induced TF-1 cell proliferation (recombinant human IL-1β [1]): 1.13 ng/mL

B2: clone Q26 rabbit anti-IL-1β antibody (antibody, V domains shown)
VH: B1 VH
VL: B1 VL
notes: Recombinant rabbit IgG expressed in 293-6E cells; the rabbit constant regions are not; also called parental rabbit Q26
Kd (recombinant human IL-1β [2]): 0.199 nM
koff (recombinant human IL-1β [2]): 3.8e-05 s⁻¹
kon (recombinant human IL-1β [2]): 191000 M⁻¹ s⁻¹
IC 50, neutralization of IL-1β-induced TF-1 cell proliferation (recombinant human IL-1β [1]): 0.54 ng/mL

B3: Q34 rabbit anti-IL-1β antibody (antibody, V domains shown)
VH: B1 VH
VL: B1 VL
IC 50, neutralization of IL-1β-induced TF-1 cell proliferation (recombinant human IL-1β [1]): 0.55 ng/mL

B4: APX002 (humanized Q26) (antibody, V domains shown)
VH: EVQLVESGGGLVQPGGSLRLSCAVSGFSLDVYTMTWVRQAPGKGLEWIGYIWSGGSASYASWAKGRFTISKDSSKNTVYLQINSLRAEDTAVYFCARVKMISNIETFDPWGPGTLVTVSS
VL: DIQMTQSPSSVSASVGDRVTIKCQASERIYSGLAWYQQKPGKRPKLLIYRASTLASGVPSRFSGSGSGTDFTLTISSLQPEDFATYYCQQGVSSSDIDNVFGGGTKVEIK
Kd (recombinant human IL-1β [3]): 0.199 nM
binding result (mouse IL-1β): no binding (tested: 10 ug/ml)
EC50 (read off the curve) (recombinant human IL-1β [4]): ~600 ng/mL
EC50 (read off the curve) (monkey IL-1β): ~600 ng/mL
